This assay can be described thus: Body weight, haematological evaluation and flow cytometry of tumor-bearing mice on supplemented diets with chemotherapy (Example 2). Type of assay: in vivo, C57BL/6 (H-2b) mice. As to the method:
Mice. […] The animals were distributed into 7 different group diets. There was a control group that received the diet AIN 93 for adult rodents (maintenance). […] Control animals without chemotherapeutic treatment were run in parallel for all tested diets. Body weight was assessed every two days. Blood samples were obtained at day 2, 4 and 10 after the chemo-treatment and at sacrifice (14 or 28 days). An autopsy was performed and tumor mass was assessed.
Haematological evaluation.
Flow cytometric analysis.
(In general: Flow cytometry measures light scatter and fluorescence of single cells or particles in a stream.)

The values below come from US20110229521A1, “NUTRITIONAL SUPPORT OF THE IMMUNE SYSTEM DURING ANTI-CANCER TREATMENT” (priority 2008, published 2011).

B1: lactoferrin: diet with 25 mg/day of lactoferrin (protein, UniProt P24627 20-708, looked up)
Lactotransferrin: APRKNVRWCTISQPEWFKCRRWQWRMKKLGAPSITCVRRAFALECIRAIAEKKADAVTLDGGMVFEAGRDPYKLRPVAAEIYGTKESPQTHYYAVAVVKKGSNFQLDQLQGRKSCHTGLGRSAGWIIPMGILRPYLSWTESLEPLQGAVAKFFSASCVPCIDRQAYPNLCQLCKGEGENQCACSSREPYFGYSGAFKCLQDGAGDVAFVKETTVFENLPEKADRDQYELLCLNNSRAPVDAFKECHLAQVPSHAVVARSVDGKEDLIWKLLSKAQEKFGKNKSRSFQLFGSPPGQRDLLFKDSALGFLRIPSKVDSALYLGSRYLTTLKNLRETAEEVKARYTRVVWCAVGPEEQKKCQQWSQQSGQNVTCATASTTDDCIVLVLKGEADALNLDGGYIYTAGKCGLVPVLAENRKSSKHSSLDCVLRPTEGYLAVAVVKKANEGLTWNSLKDKKSCHTAVDRTAGWNIPMGLIVNQTGSCAFDEFFSQSCAPGADPKSRLCALCAGDDQGLDKCVPNSKEKYYGYTGAFRCLAEDVGDVAFVKNDTVWENTNGESTADWAKNLNREDFRLLCLDGTRKPVTEAQSCHLAVAPNHAVVSRSDRAAHVKQVLLHQQALFGKNGKNCPDKFCLFKSETKNLLFNDNTECLAKLGGRPTYEEYLGTEYVTAIANLKKCSTSPLLEACAFLTR
With B1, for the setting “chemotherapy treated group compared to the control, FIG. 11”, the “toxicity (bone marrow)” value is listed as “less toxicity”. Further, the Global lymphocyte population result (following chemotherapy, supplemented diet) is “less depressed following chemotherapy”. In addition, under “oxaliplatin treated animals, supplemented diet”, the leukocytic increase entry is given as “tended to be higher”. Further, the “immune cell population / concentration” value (second phase (tumor-induced toxicity)) is listed as “increase in their immune cell population”.
